This is an account of results in paper PMC9482650, “Quantitative fragmentomics allow affinity mapping of interactomes” (Nature Communications, 2022).

Targets include GRIP2_4, Q9C0E4; PDLIM1, O00151; FRMPD2_2, Q68DX3; Inadl_4, Q8NI35; MAGI2_6, Q86UL8; PTPN3, P26045; CASK, O14936; MAST2, Q6P0Q8; DLG4_1, P78352; ARHGEF12, Q9NZN5-2.
Holding throughout (experiment): holdup assay
What all share (design): key: below the threshold = too weak to quantify, mostly under pKd 3.1 to 4
Details in all cases: plain residues with an end cap or a label only (N-terminal biotin on a linker: ado-ado)

The next assay concerns the target T1, MPDZ_5, O75970.
T1 sequence (O75970 695-796, limits assumed, looked up): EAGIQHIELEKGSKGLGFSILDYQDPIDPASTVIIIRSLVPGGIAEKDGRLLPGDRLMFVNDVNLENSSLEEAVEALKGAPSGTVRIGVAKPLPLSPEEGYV

Another assay deals with T2, SIPA1L2, Q9P2F8.
T2 sequence (Q9P2F8 945-1036, limits assumed, looked up): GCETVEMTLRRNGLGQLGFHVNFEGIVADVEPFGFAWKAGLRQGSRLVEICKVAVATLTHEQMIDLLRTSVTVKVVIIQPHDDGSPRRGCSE

Another assay deals with T3, MPP2, Q14168.
T3 sequence (Q14168 180-250, limits assumed, looked up): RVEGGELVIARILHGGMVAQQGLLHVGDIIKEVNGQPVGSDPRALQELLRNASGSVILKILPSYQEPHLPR

The next assay addresses T4, ARHGAP21, Q5T5U3.
T4 sequence (Q5T5U3 45-169, limits assumed, looked up): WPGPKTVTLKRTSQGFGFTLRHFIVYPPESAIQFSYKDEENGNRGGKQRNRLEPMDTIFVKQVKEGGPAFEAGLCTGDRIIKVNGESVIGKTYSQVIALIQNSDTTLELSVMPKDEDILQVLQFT

Another assay has as its target T5, PDZD7_3, Q9H5P4.
T5 sequence (Q9H5P4 857-944, limits assumed, looked up): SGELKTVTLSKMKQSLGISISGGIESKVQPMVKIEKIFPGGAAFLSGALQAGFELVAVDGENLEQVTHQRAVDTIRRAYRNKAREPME

A further assay concerns the target T6, SNTB1, Q13884.
T6 sequence (Q13884 107-205, limits assumed, looked up): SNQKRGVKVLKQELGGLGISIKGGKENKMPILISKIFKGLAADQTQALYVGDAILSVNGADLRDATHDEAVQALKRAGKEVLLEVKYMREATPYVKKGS

The target of a further assay is T7, NHERF3_3, Q5T2W1.
T7 sequence (Q5T2W1 238-333, limits assumed, looked up): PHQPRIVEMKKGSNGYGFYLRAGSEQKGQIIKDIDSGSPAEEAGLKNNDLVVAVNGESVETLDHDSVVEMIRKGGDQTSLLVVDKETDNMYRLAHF

A further assay deals with T8, TX1BP3, O14907.
T8 sequence (O14907 10-122, limits assumed, looked up): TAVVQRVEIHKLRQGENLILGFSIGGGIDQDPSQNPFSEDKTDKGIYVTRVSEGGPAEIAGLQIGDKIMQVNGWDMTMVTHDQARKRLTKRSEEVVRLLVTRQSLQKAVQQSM

The next assay has as its target T9, MPP7, Q5T2T1.
T9 sequence (Q5T2T1 134-230, limits assumed, looked up): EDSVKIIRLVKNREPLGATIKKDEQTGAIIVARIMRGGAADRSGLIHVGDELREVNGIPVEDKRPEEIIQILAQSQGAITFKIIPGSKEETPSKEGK

For another assay, the target named is T10, APBA1_2, Q02410.
T10 sequence (Q02410 742-832, limits assumed, looked up): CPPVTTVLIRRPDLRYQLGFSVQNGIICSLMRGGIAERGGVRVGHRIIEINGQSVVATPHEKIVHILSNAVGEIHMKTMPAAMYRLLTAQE

For the next assay, the target named is T11, APBA2_2, Q99767.
T11 sequence (Q99767 654-744, limits assumed, looked up): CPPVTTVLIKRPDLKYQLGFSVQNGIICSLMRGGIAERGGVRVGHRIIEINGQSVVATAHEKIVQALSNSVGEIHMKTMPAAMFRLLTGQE

In a further assay the target is T12, GRIP1_5, Q9Y3R0.
T12 sequence (Q9Y3R0 568-668, limits assumed, looked up): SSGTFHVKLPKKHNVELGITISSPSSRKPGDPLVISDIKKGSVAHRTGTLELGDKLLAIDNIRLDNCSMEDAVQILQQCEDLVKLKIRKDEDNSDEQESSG

Another assay addresses T13, LIN7B, Q9HAP6.
T13 sequence (Q9HAP6 88-185, limits assumed, looked up): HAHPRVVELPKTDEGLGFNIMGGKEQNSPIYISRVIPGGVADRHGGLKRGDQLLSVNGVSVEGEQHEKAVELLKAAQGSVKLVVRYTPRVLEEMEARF

A further assay addresses T14, NHERF3_4, Q5T2W1.
T14 sequence (Q5T2W1 373-468, limits assumed, looked up): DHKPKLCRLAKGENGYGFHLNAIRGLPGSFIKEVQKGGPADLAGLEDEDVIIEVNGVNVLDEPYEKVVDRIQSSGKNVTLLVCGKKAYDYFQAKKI

Chain of MAGI2_6, Q86UL8 (Q86UL8 1141-1229): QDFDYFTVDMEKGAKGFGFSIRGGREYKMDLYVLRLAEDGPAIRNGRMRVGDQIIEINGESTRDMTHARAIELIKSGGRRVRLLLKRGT
Chain of GRIP2_4, Q9C0E4 (Q9C0E4 446-548): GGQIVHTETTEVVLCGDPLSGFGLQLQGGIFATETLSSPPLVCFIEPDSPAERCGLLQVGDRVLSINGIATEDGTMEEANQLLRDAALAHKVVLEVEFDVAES
Chain of CASK, O14936 (O14936 487-570): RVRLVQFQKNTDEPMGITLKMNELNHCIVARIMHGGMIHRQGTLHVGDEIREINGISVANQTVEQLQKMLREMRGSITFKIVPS
Chain of PDLIM1, O00151 (O00151 1-87): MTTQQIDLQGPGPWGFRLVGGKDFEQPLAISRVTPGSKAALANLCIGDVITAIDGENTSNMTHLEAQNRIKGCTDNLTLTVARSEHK
Chain of DLG4_1, P78352 (P78352 62-152): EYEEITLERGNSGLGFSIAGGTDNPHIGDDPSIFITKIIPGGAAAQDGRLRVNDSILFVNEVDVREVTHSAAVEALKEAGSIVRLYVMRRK
Chain of FRMPD2_2, Q68DX3 (Q68DX3 944-1038): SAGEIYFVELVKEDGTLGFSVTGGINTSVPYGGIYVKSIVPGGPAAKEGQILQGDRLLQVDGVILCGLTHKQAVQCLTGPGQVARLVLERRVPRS
Chain of ARHGEF12, Q9NZN5-2 (Q9NZN5 other isoform, or with tags, fused parts or gaps): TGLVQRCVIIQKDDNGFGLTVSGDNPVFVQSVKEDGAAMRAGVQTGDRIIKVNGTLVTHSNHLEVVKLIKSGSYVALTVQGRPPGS
Chain of Inadl_4, Q8NI35 (Q8NI35 547-651): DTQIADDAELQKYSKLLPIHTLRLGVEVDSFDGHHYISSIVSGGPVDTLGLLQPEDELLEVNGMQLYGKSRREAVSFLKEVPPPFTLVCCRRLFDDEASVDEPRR
Chain of MAST2, Q6P0Q8 (Q6P0Q8 1099-1202): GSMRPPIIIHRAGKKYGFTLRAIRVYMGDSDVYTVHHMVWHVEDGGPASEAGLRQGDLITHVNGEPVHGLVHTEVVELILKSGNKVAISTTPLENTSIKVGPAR
Chain of PTPN3, P26045 (P26045 505-587): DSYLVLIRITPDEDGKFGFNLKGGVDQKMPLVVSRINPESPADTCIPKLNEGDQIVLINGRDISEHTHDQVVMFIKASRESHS

With LESTTVGTSV [KARS1, Q15046], the pKd entry is “below the threshold” with GRIP2_4, Q9C0E4; “below the threshold” in the assay with MPDZ_5, O75970; “below the threshold” in the assay with SIPA1L2, Q9P2F8; “below the threshold” with MPP2, Q14168; “below the threshold” with PDLIM1, O00151; “below the threshold” in the assay with ARHGAP21, Q5T5U3. The pKd with FRMPD2_2, Q68DX3 was 3.79; in the assay with Inadl_4, Q8NI35, “below the threshold”; in the assay with PDZD7_3, Q9H5P4, 3.82; with SNTB1, Q13884, 3.85; in the assay with MAGI2_6, Q86UL8, 4.32; in the assay with NHERF3_3, Q5T2W1 it was “below the threshold”. Also, the pKd with TX1BP3, O14907 was 3.6; with PTPN3, P26045, 4.82; with CASK, O14936, “below the threshold”; in the assay with MPP7, Q5T2T1, “below the threshold”; with APBA1_2, Q02410, 4.69; in the assay with APBA2_2, Q99767 it was “below the threshold”. The pKd result was “below the threshold” in the assay with GRIP1_5, Q9Y3R0; 5.02 in the assay with MAST2, Q6P0Q8; 3.79 with LIN7B, Q9HAP6; 4.13 with DLG4_1, P78352; “below the threshold” in the assay with NHERF3_4, Q5T2W1; 4.03 with ARHGEF12, Q9NZN5-2.
As to ILRKSTTTTV [PRR16, Q569H4], the pKd entry is “below the threshold” in the assay with GRIP2_4, Q9C0E4; “below the threshold” with MPDZ_5, O75970; “below the threshold” with SIPA1L2, Q9P2F8; “below the threshold” with MPP2, Q14168; “below the threshold” with PDLIM1, O00151; 3.92 with ARHGAP21, Q5T5U3. Further, the pKd result with FRMPD2_2, Q68DX3 is “below the threshold”; with Inadl_4, Q8NI35, “below the threshold”; with PDZD7_3, Q9H5P4 it was 4.67; with SNTB1, Q13884 it was 3.85; in the assay with MAGI2_6, Q86UL8, “below the threshold”; with NHERF3_3, Q5T2W1, “below the threshold”. Moreover, the pKd in the assay with TX1BP3, O14907 is 3.66; with PTPN3, P26045, 3.92; with CASK, O14936, “below the threshold”; with MPP7, Q5T2T1 it was “below the threshold”; with APBA1_2, Q02410 it was “below the threshold”; in the assay with APBA2_2, Q99767, “below the threshold”. Besides, the pKd entry in the assay with GRIP1_5, Q9Y3R0 is “below the threshold”; with MAST2, Q6P0Q8, 5.05; in the assay with LIN7B, Q9HAP6, “below the threshold”; with DLG4_1, P78352 it was 4.78; with NHERF3_4, Q5T2W1, “below the threshold”; in the assay with ARHGEF12, Q9NZN5-2 it was 4.26.
Regarding TNSRHGETTV [FZD2, Q14332], the pKd entry with GRIP2_4, Q9C0E4 is “below the threshold”; in the assay with MPDZ_5, O75970, “below the threshold”; with SIPA1L2, Q9P2F8 it was “below the threshold”; with MPP2, Q14168, “below the threshold”; in the assay with PDLIM1, O00151 it was “below the threshold”; with ARHGAP21, Q5T5U3 it was 4.04. Further, the pKd is 3.54 with FRMPD2_2, Q68DX3; “below the threshold” with Inadl_4, Q8NI35; 4.26 with PDZD7_3, Q9H5P4; 4.75 with SNTB1, Q13884; 4.26 in the assay with MAGI2_6, Q86UL8; “below the threshold” with NHERF3_3, Q5T2W1. In addition, the pKd with TX1BP3, O14907 was 3.68; with PTPN3, P26045, 4.61; in the assay with CASK, O14936 it was “below the threshold”; with MPP7, Q5T2T1 it was “below the threshold”; with APBA1_2, Q02410 it was 3.71; in the assay with APBA2_2, Q99767, “below the threshold”. The negative-log Kd (pKd) result with GRIP1_5, Q9Y3R0 was “below the threshold”; in the assay with MAST2, Q6P0Q8, 5.05; in the assay with LIN7B, Q9HAP6, 3.82; with DLG4_1, P78352 it was 4.85; with NHERF3_4, Q5T2W1, “below the threshold”; with ARHGEF12, Q9NZN5-2, 3.57.
In the case of STKRKLASAV [NCF1, P14598], the pKd entry in the assay with GRIP2_4, Q9C0E4 is on record as “below the threshold”; in the assay with MPDZ_5, O75970 it was “below the threshold”; in the assay with SIPA1L2, Q9P2F8, “below the threshold”; with MPP2, Q14168 it was “below the threshold”; in the assay with PDLIM1, O00151, “below the threshold”; with ARHGAP21, Q5T5U3, “below the threshold”. For the same molecule, the pKd result is listed as “below the threshold” with FRMPD2_2, Q68DX3; “below the threshold” with Inadl_4, Q8NI35; “below the threshold” with PDZD7_3, Q9H5P4; “below the threshold” with SNTB1, Q13884; “below the threshold” with MAGI2_6, Q86UL8; “below the threshold” with NHERF3_3, Q5T2W1. Further, the pKd in the assay with TX1BP3, O14907 is 3.72; in the assay with PTPN3, P26045, 3.95; in the assay with CASK, O14936, “below the threshold”; in the assay with MPP7, Q5T2T1, “below the threshold”; with APBA1_2, Q02410 it was 3.88; with APBA2_2, Q99767, “below the threshold”. Besides, the pKd result in the assay with GRIP1_5, Q9Y3R0 is “below the threshold”; with MAST2, Q6P0Q8 it was 4.54; with LIN7B, Q9HAP6 it was “below the threshold”; with DLG4_1, P78352, “below the threshold”; with NHERF3_4, Q5T2W1, “below the threshold”; with ARHGEF12, Q9NZN5-2 it was 3.79.

As a reminder, the pKd is −log10 of the Kd, conventionally taken in molar units.
